From patent US20210380703A1 (RIGEL PHARMACEUTICALS, published 2021)

Assays:
human ACVR2A = human ACVR2A (human, UniProt P27037 20-135, limits assumed); assay: ELISA
Outline: (§1)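 Monoclonal antibodies were first applied to human or mouse ACVR2A, alongside biotinylated goat anti-human kappa light chain (positive control) and human Fc (negative control); binding was then determined by ELISA.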

mouse ACVR2A = mouse ACVR2A (mouse, UniProt P27038 20-135, limits assumed); assay: ELISA
Outline: as §1

[1] = target: T1, biotinylated goat anti-human kappa light chain; assay: ELISA; positive control
T1 construct: Positive control of the ELISA
Outline: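 ELISA measured binding of ACVR2A-specific monoclonal antibodies to human and mouse ACVR2A. Biotinylated goat anti-human kappa light chain served as positive control and human Fc as negative control.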
Also: test concentration or dose not given here.

Sequence of human ACVR2A (P27037 20-135 limits assumed): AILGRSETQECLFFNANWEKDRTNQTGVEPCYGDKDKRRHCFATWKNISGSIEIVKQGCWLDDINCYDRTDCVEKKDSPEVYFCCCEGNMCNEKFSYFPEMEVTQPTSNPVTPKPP
Sequence of mouse ACVR2A (P27038 20-135 limits assumed): as the sequence (P27037 20-135 limits assumed) above, with K20R, V73I counted along it

Binder	optical density (human ACVR2A)	optical density (mouse ACVR2A)	optical density [1]
374_H08 (antibody, V domains shown, VH/VL only) VH: EVQLLESGGGLVQPGGSLRLSCAASGFTFDSYSMNWVRQAPGKGLEWVSGINYNGGYTGYADSVKGRFTISRDNSKNTLYLQMNSLRAEDTAVYYCARSATWHDTHLDYWGQGTLVTVSS VL: DIQMTQSPSSLSASVGDRVTITCRASQSILSYLNWYQQKPGKAPKLLIYAATSLHSGVPSRFSGSGSGTDFTLTISSLQPEDFATYYCQQSYENPLTFGGGTKVEIK	3.31 OD	3.27 OD	3.09 OD
375_B04 (antibody, V domains shown, VH/VL only) VH: EVQLLESGGGLVQPGGSLRLSCAASGFTFDSYSMNWVRQAPGKGLEWVANINYNGGYTGYADSVKGRFTISRDNSKNTLYLQMNSLRAEDTAVYYCARSATWHDTHLDYWGQGTLVTVSS VL: DIQMTQSPSSLSASVGDRVTITCRASQSILTYLNWYQQKPGKAPKLLIYAATSRASGVPSRFSGSGSGTDFTLTISSLQPEDFATYYCQQSYDNPLTFGGGTKVEIK	3.69 OD	3.73 OD	3.26 OD
375_E07 (antibody, V domains shown, VH/VL only) VH: EVQLLESGGGLVQPGGSLRLSCAASGFTFSDYSMNWVRQAPGKGLEWVAGINYNSGYKGYADSVKGRFTISRDNSKNTLYLQMNSLRAEDTAVYYCARSANWHDTALDYWGQGTLVTVSS VL: DIQMTQSPSSLSASVGDRVTITCRASQSIVTYLNWYQQKPGKAPKLLIYVVTNRESGVPSRFSGSGSGTDFTLTISSLQPEDFATYYCQQSYETPLTFGGGTKVEIK	3.68 OD	3.81 OD	3.06 OD
376_A10 (antibody, V domains shown, VH/VL only) VH: EVQLLESGGGLVQPGGSLRLSCAASGFTFSDYGMNWVRQAPGKGLEWVSNINYNSGYKGYADSVKGRFTISRDNSKNTLYLQMNSLRAEDTAVYYCARSANWHDTALDYWGQGTLVTVSS VL: DIQMTQSPSSLSASVGDRVTITCRASQSILSYLNWYQQKPGKAPKLLIYAATSRASGVPSRFSGSGSGTDFTLTISSLQPEDFATYYCQQSYESPLTFGGGTKVEIK	3.68 OD	3.64 OD	3.17 OD
375_D05 (antibody, V domains shown, VH/VL only) VH: EVQLLESGGGLVQPGGSLRLSCAASGFTFSSYSMNWVRQAPGKGLEWVASINYNSGYTSYADSVKGRFTISRDNSKNTLYLQMNSLRAEDTAVYYCARSANWHDTHLDYWGQGTLVTVSS VL: DIQMTQSPSSLSASVGDRVTITCRASQSIVSYLNWYQQKPGKAPKLLIYAATSLHSGVPSRFSGSGSGTDFTLTISSLQPEDFATYYCQQSYDTPLTFGGGTKVEIK	3.46 OD	3.61 OD	3.21 OD
375_C12 (antibody, V domains shown, VH/VL only) VH: EVQLLESGGGLVQPGGSLRLSCAASGFTFSSYSMNWVRQAPGKGLEWVANINYNGGYTGYADSVKGRFTISRDNSKNTLYLQMNSLRAEDTAVYYCARSATWHDTHLDYWGQGTLVTVSS VL: DIQMTQSPSSLSASVGDRVTITCRASQSILTYLNWYQQKPGKAPKLLIYAATSRASGVPSRFSGSGSGTDFTLTISSLQPEDFATYYCQQSYDLPLTFGGGTKVEIK	3.66 OD	3.33 OD	3.27 OD
375_D12 (antibody, V domains shown, VH/VL only) VH: EVQLLESGGGLVQPGGSLRLSCAASGFTFDSYGMNWVRQAPGKGLEWVSSINYNSGYTSYADSVKGRFTISRDNSKNTLYLQMNSLRAEDTAVYYCARSANWHDTALDYWGQGTLVTVSS VL: DIQMTQSPSSLSASVGDRVTITCRASQSILTYVNWYQQKPGKAPKLVIYAATSRASGVPSRFSGSGSGTDFTLTISSLQPEDFATYYCQQSYETPLTFGGGTKVEIK	3.24 OD	3.16 OD	3.23 OD
375_H12 (antibody, V domains shown, VH/VL only) VH: EVQLLESGGGLVQPGGSLRLSCAASGFTFSSYGMNWVRQAPGKGLEWVAGINYNGGYKGYADSVKGRFTISRDNSKNTLYLQMNSLRAEDTAVYYCARSANWHDTALDYWGQGTLVTVSS VL: DIQMTQSPSSLSASVGDRVTITCRASQSILTYLNWYQQKPGKAPKLLIYYVTNRQSGVPSRFSGSGSGTDFTLTISSLQPEDFATYYCQQSYSIPLTFGGGTKVEIK	3.26 OD	3.1 OD	3.26 OD
374_H09 (antibody, V domains shown, VH/VL only) VH: EVQLLESGGGLVQPGGSLRLSCAASGFTFSSYSMNWVRQAPGKGLEWVANINYNSGYKSYADSVKGRFTISRDNSKNTLYLQMNSLRAEDTAVYYCARSANWHDTALDYWGQGTLVTVSS VL: DIQMTQSPSSLSASVGDRVTITCRASQSILSYLNWYQQKPGKAPKLVIYAVTSLASGVPSRFSGSGSGTDFTLTISSLQPEDFATYYCQQSYDLPLTFGGGTKVEIK	3.25 OD	3.26 OD	3.04 OD
375_D07 (antibody, V domains shown, VH/VL only) VH: EVQLLESGGGLVQPGGSLRLSCAASGFTFSSYGMNWVRQAPGKGLEWVANINYNSGYTGYADSVKGRFTISRDNSKNTLYLQMNSLRAEDTAVYYCARSANWHDTALDYWGQGTLVTVSS VL: DIQMTQSPSSLSASVGDRVTITCRASQSIITYLNWYQQKPGKAPKLLIYAATSRASGVPSRFSGSGSGTDFTLTISSLQPEDFATYYCQQSYDTPLTFGGGTKVEIK	3.56 OD	3.63 OD	3.25 OD
375_A02 (antibody, V domains shown, VH/VL only) VH: EVQLLESGGGLVQPGGSLRLSCAASGFTFSSYSMNWVRQAPGKGLEWVAGINYNSGYTSYADSVKGRFTISRDNSKNTLYLQMNSLRAEDTAVYYCARSATWHDTHLDYWGQGTLVTVSS VL: not shown	2.98 OD	3.18 OD	3.07 OD
375_C06 (antibody, V domains shown, VH/VL only) VH: EVQLLESGGGLVQPGGSLRLSCAASGFTFDDYGMHWVRQAPGKGLEWVASINYNSGYTSYADSVKGRFTISRDNSKNTLYLQMNSLRAEDTAVYYCARSANWHDTALDYWGQGTLVTVSS VL: DIQMTQSPSSLSASVGDRVTITCRASQSILTYVNWYQQKPGKAPKLVIYATTSRASGVPSRFSGSGSGTDFTLTISSLQPEDFATYYCQQSYDSPLTFGGGTKVEIK	2.65 OD	3.21 OD	3.29 OD
376_A04 (antibody, V domains shown, VH/VL only) VH: EVQLLESGGGLVQPGGSLRLSCAASGFTFDSYSMNWVRQAPGKGLEWVSNINYNGGYTSYADSVKGRFTISRDNSKNTLYLQMNSLRAEDTAVYYCARSANWHDTALDYWGQGTLVTVSS VL: DIQMTQSPSSLSASVGDRVTITCRASQSIVTYLNWYQQKPGKAPKLVIYAATSRASGVPSRFSGSGSGTDFTLTISSLQPEDFATYYCQQSYDSPLTFGGGTKVEIK	3.59 OD	3.58 OD	3.12 OD
375_A06 (antibody, V domains shown, VH/VL only) VH: EVQLLESGGGLVQPGGSLRLSCAASGFTFSSYSMNWVRQAPGKGLEWVAGINYNSGYKGYADSVKGRFTISRDNSKNTLYLQMNSLRAEDTAVYYCARSATWHDTHLDYWGQGTLVTVSS VL: DIQMTQSPSSLSASVGDRVTITCRASQSILTYVNWYQQKPGKAPKLLIYAASSLQSGVPSRFSGSGSGTDFTLTISSLQPEDFATYYCQQSYSTPLTFGGGTKVEIK	3.65 OD	3.71 OD	3.11 OD
375_E01 (antibody, V domains shown, VH/VL only) VH: EVQLLESGGGLVQPGGSLRLSCAASGFTFSSYSMNWVRQAPGKGLEWVSGINYNSGYKSYADSVKGRFTISRDNSKNTLYLQMNSLRAEDTAVYYCARSANWHDTALDYWGQGTLVTVSS VL: DIQMTQSPSSLSASVGDRVTITCRASQSILTYLNWYQQKPGKAPKLVIYAATSRASGVPSRFSGSGSGTDFTLTISSLQPEDFATYYCQQSDDSPLTFGGGTKVEIK	3.16 OD	3.63 OD	3.11 OD
376_A06 (antibody, V domains shown, VH/VL only) VH: EVQLLESGGGLVQPGGSLRLSCAASGFTFDSYSMNWVRQAPGKGLEWVSGINYNSGYTSYADSVKGRFTISRDNSKNTLYLQMNSLRAEDTAVYYCARSATWHDTALDYWGQGTLVTVSS VL: DIQMTQSPSSLSASVGDRVTITCRASQSILSYLNWYQQKPGKAPKLVIYYVSNRASGVPSRFSGSGSGTDFTLTISSLQPEDFATYYCQQSYDNPLTFGGGTKVEIK	3.69 OD	3.74 OD	3.16 OD
375_D08 (antibody, V domains shown, VH/VL only) VH: EVQLLESGGGLVQPGGSLRLSCAASGFTFSDYGMNWVRQAPGKGLEWVSGINYNSGYKGYADSVKGRFTISRDNSKNTLYLQMNSLRAEDTAVYYCARSANWHDTALDYWGQGTLVTVSS VL: DIQMTQSPSSLSASVGDRVTITCRASQSIITYLNWYQQKPGKAPKLLIYAATSRASGVPSRFSGSGSGTDFTLTISSLQPEDFATYYCQQSYSTPLTFGGGTKVEIK	3.29 OD	3.4 OD	3.3 OD
375_G07 (antibody, V domains shown, VH/VL only) VH: EVQLLESGGGLVQPGGSLRLSCAASGFTFDSYSMNWVRQAPGKGLEWVAGINYNSGYTSYADSVKGRFTISRDNSKNTLYLQMNSLRAEDTAVYYCARSATWHDTHLDYWGQGTLVTVSS VL: DIQMTQSPSSLSASVGDRVTITCRASQSILSYLNWYQQKPGKAPKLVIYAATSLASGVPSRFSGSGSGTDFTLTISSLQPEDFATYYCQQSYDLPLTFGGGTKVEIK	3.63 OD	3.67 OD	3.2 OD
375_A05 (antibody, V domains shown, VH/VL only) VH: EVQLLESGGGLVQPGGSLRLSCAASGFTFSSYGMNWVRQAPGKGLEWVANINYNGGYKGYADSVKGRFTISRDNSKNTLYLQMNSLRAEDTAVYYCARSANWHDTALDYWGQGTLVTVSS VL: DIQMTQSPSSLSASVGDRVTITCRASQSILSYLNWYQQKPGKAPKLLIYAATSRASGVPSRFSGSGSGTDFTLTISSLQPEDFATYYCQQSYDLPLTFGGGTKVEIK	3.72 OD	3.69 OD	3.12 OD
